In paper PMC4522956, “Unsaturated fatty acids as high-affinity ligands of the C-terminal Per-ARNT-Sim domain from the Hypoxia-inducible factor 3α” (Scientific Reports, 2015):

Biological target: T1, HIF-1β PASb labeled with FITC (human (cDNA library from the breast …, UniProt P27540 349-467, FITC (fluorescein isothiocyanate) label, sites not stated))
T1 construct: HIF-1β (ARNT), PASb domain, Pro349-Ser467 of UniProt P27540; Same construct as m2, labeled with a 20-fold molar excess of FITC in borate buffer pH 8.5; also called PASb-1β labeled with FITC; PASb-1β; source: E. coli Rosetta-2, purified (TALON, MonoQ, Superdex 75), then labeled with FITC; not shown: 6xHis, N-terminal, cleaved
T1 sequence (P27540 349-467): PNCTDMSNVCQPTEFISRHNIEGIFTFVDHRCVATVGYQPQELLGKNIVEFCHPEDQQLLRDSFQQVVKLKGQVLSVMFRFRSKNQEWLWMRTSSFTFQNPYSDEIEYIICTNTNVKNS
Assay: fluorescence polarisation; unlabeled PASb-1α or PASb-3α serially diluted 1:2 from about 1 mM, mixed with FITC-labeled PASb-1β at 20 nM final; 30 mM Hepes pH 7.5, 150 mM NaCl, 0.5 mM TCEP; room temperature; triplicate
Conditions: both partners purified

B1: HIF-1α PASb (domain or fragment)
chain: not shown
notes: Hypoxia-inducible factor 1α, PASb domain, Asp238-His348 of UniProt Q16665; Cloned NdeI/XhoI into pET28a; residues of the vector probably remain at the N-terminus after thrombin cleavage (surmise); also called PASb-1α; source: E. coli Rosetta-2, purified (TALON, MonoQ, Superdex 75); not shown: 6xHis, N-terminal, cleaved
B1: binds.
